Our source for the activity values is US20250368975, “COMPOSITIONS, METHODS AND SYSTEMS FOR HIGH-FIDELITY CAS13A VARIANTS WITH IMPROVED SPECIFICITY” (University of Rochester, published 2025).

For this data set, the target named is T1, LbuCas13a R377A (Leptotrichia buccalis, UniProt C7NBY4 SEQ:1-1159).
T1 chain: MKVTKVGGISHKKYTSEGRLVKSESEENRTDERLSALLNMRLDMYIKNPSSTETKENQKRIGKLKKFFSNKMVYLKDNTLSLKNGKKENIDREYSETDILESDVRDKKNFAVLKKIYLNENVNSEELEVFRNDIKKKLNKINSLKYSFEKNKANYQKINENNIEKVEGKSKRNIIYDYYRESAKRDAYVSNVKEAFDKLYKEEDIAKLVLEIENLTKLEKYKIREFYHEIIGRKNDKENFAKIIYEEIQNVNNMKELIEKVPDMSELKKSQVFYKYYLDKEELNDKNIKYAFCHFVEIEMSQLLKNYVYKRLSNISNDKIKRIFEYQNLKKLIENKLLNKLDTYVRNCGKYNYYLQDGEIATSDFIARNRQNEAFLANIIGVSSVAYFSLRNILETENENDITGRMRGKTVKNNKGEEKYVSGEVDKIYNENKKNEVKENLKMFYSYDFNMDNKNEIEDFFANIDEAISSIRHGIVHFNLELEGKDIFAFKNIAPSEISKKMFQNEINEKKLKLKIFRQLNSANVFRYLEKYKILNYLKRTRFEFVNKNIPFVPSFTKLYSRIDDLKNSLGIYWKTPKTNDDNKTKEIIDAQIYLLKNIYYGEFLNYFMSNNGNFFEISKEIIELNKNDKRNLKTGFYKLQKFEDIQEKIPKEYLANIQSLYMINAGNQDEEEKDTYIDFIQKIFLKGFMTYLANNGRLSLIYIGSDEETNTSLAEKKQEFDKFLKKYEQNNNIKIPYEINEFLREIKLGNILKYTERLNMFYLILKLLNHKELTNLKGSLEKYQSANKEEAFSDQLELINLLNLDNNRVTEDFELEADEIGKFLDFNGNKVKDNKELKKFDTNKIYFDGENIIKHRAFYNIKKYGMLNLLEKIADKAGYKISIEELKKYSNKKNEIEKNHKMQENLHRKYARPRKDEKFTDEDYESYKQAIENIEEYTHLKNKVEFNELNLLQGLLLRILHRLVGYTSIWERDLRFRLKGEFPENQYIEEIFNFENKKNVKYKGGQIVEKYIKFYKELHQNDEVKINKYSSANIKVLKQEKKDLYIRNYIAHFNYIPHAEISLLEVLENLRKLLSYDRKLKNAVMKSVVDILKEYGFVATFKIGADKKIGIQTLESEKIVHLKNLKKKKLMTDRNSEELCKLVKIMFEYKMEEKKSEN
Put plainly: cleavage_in_vitro; 10 nM; decreased about 50% vs WT; inactive at 100 pM. The following applies: tags: His6-MBP-TEV (cleaved); hairpin in direct repeat.

B1: del crRNA 20 nt spacer ; perfect match target RNA (ssRNA ; ssRNA)
RNA 1: GGCCACCCCAAAAAUGAAGGGGACUAAAACACAAAUCUAUCUGAAUAAAC
RNA 2: GGGAAACCAAGAAGAAGAGUUUAUUCAGAUAGAUUUGUCACAGCAGAAGCCCACAC
Regarding B1, the activity was ~50 % of WT.
